This note sets out measurements from PMC4275181.

Common to all, as to assay: filter binding
In data set [1] the target is T1, CYT-18 NTDs (Neurospora crassa) (UniProt P12063).
T1 sequence: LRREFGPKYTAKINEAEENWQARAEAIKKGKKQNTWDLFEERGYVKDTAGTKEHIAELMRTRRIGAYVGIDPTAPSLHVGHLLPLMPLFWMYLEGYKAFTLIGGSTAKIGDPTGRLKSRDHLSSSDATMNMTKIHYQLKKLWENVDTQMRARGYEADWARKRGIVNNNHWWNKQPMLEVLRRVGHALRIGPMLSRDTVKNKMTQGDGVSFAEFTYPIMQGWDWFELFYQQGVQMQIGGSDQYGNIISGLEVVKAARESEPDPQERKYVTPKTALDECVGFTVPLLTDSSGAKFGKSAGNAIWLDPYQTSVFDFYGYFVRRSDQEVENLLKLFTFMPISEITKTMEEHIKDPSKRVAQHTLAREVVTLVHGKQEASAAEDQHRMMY
Particulars: 100 mM KCl, 5 mM MgCl2, 20 mM Tris-HCl pH 7.5, 5 mM DTT, 0.1 mg/ml BSA, 10% glycerol, 5 pM RNA, 30 min, 25C or 37C, nitrocellulose/nylon filter.

Data set [2] concerns the target T2, Sc CTD (Saccharomyces cerevisiae) (UniProt P48527).
T2 sequence: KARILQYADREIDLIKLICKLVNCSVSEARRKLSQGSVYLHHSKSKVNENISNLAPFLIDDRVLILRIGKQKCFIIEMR
Particulars: 25C; n=1.8; 100 mM KCl, 5 mM MgCl2, 20 mM Tris-HCl pH 7.5, 5 mM DTT, 0.1 mg/ml BSA, 10% glycerol, 5 pM RNA, 30 min, 25C or 37C; nitrocellulose/nylon filter.

For data set [3], the system named is Sc mtTyrRS (Saccharomyces cerevisiae). The settings on record: 100 mM KCl, 5 mM MgCl2, 20 mM Tris-HCl pH 7.5, 5 mM DTT, 0.1 mg/ml BSA, 10% glycerol, 5 pM RNA, 30 min, 25C or 37C; nitrocellulose/nylon filter.

For orientation: Kd means the free concentration of one partner at which half of the binding sites on the other are occupied at equilibrium, for simple one-to-one binding. Read a high Kd as a looser complex. On to “Ll.LtrB group II intron RNA (dORF, branch-point nucleotide deleted)”, for which the Kd in data set [1] and in data set [3] was 440 nM throughout. For the same substance, the K half in data set [1] (25C, n=1.6) turned out to be 240 nM; in data set [2], 110 nM.

With Nc ND1m group I intron RNA, the Kd in data set [1] (25C, low end of stated range, strongest group I intron) came to 200 nM; in data set [1] (37C, low end of stated range, strongest group I intron), 440 nM.

For Nc mt LSU group I intron RNA, the Kd in data set [1] (25C, high end of stated range, weakest group I intron) was found to be 590 nM; in data set [1] (37C, high end of stated range, weakest group I intron), 740 nM; in data set [3], 430 nM.
